Results on one molecule are retold here after patent publication US20030087395A1, “Cardiotrophin-like cytokine” (Human Genome Sciences, Inc., priority 1997, published 2003).

Type in all cases: cell-based
Experiment [1] has as its system SRE element in TF-1 cells. The experiment is described as follows: SRE/SEAP reporter assay in TF-1 cells. The settings on record: supernatants from 293T cells transfected with CLC expression vector, SEAP reporter. The text has this: (§1) Therefore, activation of the Jaks-STATs pathway, reflected by the binding of the GAS or the ISRE element, can be used to indicate proteins involved in the proliferation and differentiation of cells. For example, growth factors and cytokines are known to activate the Jaks-STATs pathway (see Table below). Thus, by using GAS elements linked to reporter molecules, activators of the Jaks-STATs pathway can be identified. Serum response elements (SREs) play a similar role in signal transduction although the DNA sequence which mediates a serum response is unique from the GAS or ISRE sequences.
(§2) Other constructs can be made using the above description and replacing GAS with a different promoter sequence. For example, construction of reporter molecules containing NF-kB and EGR promoter sequences are described in Examples 6 and 8. However, many other promoters can be substituted using the protocols described in these Examples. For instance, SRE, IL-2, NFAT, or Osteocalcin promoters can be substituted, alone or in combination (e.g., GAS/NF-κB/EGR, GAS/NF-κB, Il-2/NFAT, or NF-κB/GAS). Similarly, other cell lines can be used to test reporter construct activity, such as HeLa (epithelial), HUVEC (endothelial), Reh (B-cell), Saos-2 (osteoblast), HUVAC (aortic) or cardiomyocyte.
(§3) Separate the Optiplates to avoid uneven heating.
(§4) An increase in chemiluminescence indicates reporter activity.

The test system of a further experiment is Primary cardiomyocytes. The experiment in a line: Cardiac myocyte hypertrophy, cell counts in culture. The protocol: (§5) Primary cardiomyocytes, primary neuronal cultures, or other cells are plated at a low density and cultured using standard culturing techniques. […] Cultures are evaluated at a point between 48 and 72 hours post-treatment by counting the number of cells in four non-overlapping fields in three independent cultures and averaging the results.

The subject of experiment [2] is GAS element in M1 cells. The experiment is described as follows: SEAP reporter assay, SRE experiment repeated in M1 cells. As to conditions: M1 cells replacing TF-1 cells, supernatants from 293T cells transfected with CLC expression vector.
Description: as §1, §2, §3, §4
A general note: Reporter assays use an easily measured gene product as a stand-in for the process of interest.

Experiment [3] deals with M1 cells. The experiment in a line: M1 cell proliferation by BrdU incorporation. As to conditions: dose of 100 μL, 72 hours. The method, then:
The effect of CLC on cellular proliferation can be assayed in M1 cells by BrdU incorporation. 1×10^4 cells/100 μL are dispensed into 96-well cell culture plates and labeled with 10 μL BrdU. CLC is added to the cells at several doses (0, 5, 25, and 100 μL) and LIF is added to the cells as a positive control at a dose of 100 μL. The cells are allowed to grow for 72 hours at 37° C. The amount of BrdU incorporation is determined by the Cell Proliferation ELISA BrdU colorimetric kit (Boehringer Mannheim).

Experiment [4] relates to M1 cells. The experiment is described as follows: Protein tyrosine phosphorylation after anti-gp130 immunoprecipitation. The settings on record: M1 cells treated with CLC or LIF supernatant; band of apparent molecular mass 32 kDa. The method, then:
Because of the wide range of known factors capable of stimulating tyrosine kinase activity, identifying whether CLC or a molecule induced by CLC is capable of activating tyrosine kinase signal transduction pathways is of interest. Therefore, the following protocol is designed to identify such molecules capable of activating the tyrosine kinase signal transduction pathways.
Seed NIH-3T3 cells in 15 cm^2 cell culture plates in DMEM supplemented with Pen/Strep, 10% FBS, 25 mM Hepes. […] At the point the experiment begins, the cells should be 80-90% confluent. Collect M1 cells in 50 ml tube and centrifuge 1000 rpm for 5 min. Resuspend the cell pellet in “quiescing medium” which is RPMI supplemented with Pen/Strep, glutamine. (It is important to note that quiescing medium contains neither serum nor growth factors.) Centrifuge again at 1000 rpm for 5 min to wash the cells. Again, resuspend the cells in quiescing medium. Incubate the M1 cells in quiescing medium for 16 hours at 37° C.
Pre-warm quiescing medium (for Ml cells) and a metal tube rack to 37° C. Pre-cool quiescing media (for NIH-3T3 cells) and sterile Eppendorf tubes containing 0.5 ml of sample. […] Resuspend M1 cells to 5.0×10^7 cells per 0.5 ml quiescing media. Place all tubes on per warmed metal rack and leave at 37° C. until ready to begin. Add samples to these pre-aliquoted tubes. […]

The test system of experiment [5] is GAS element in M1 cells. The experiment in a line: GAS/SEAP reporter assay in M1 cells. As to conditions: GAS/SEAP construct in M1 cells; supernatants from 293T cells transfected with CLC expression construct. From the text:
(§6) The sequence of the 5' primer is: [NT] ID NO:16). […] The sequence of the 3' primer is: [NT] ID NO:17). […] Separate the Optiplates to avoid uneven heating. […] An increase in chemiluminescence indicates reporter activity.

The test system of experiment [6] is primary neuronal cultures (sympathetic neuron counts). The experiment in a line: Neuron counts in primary neuronal cultures. The protocol:
as §5

The subject of experiment [7] is GAS element in TF-1 cells. The experiment is described as follows: GAS/SEAP reporter assay in TF-1 cells. As to conditions: GAS/SEAP construct in TF-1 cells; supernatants from 293T cells transfected with CLC expression construct.
Description: as §6

Where [8] appears, read: counted 48 to 72 hours post-treatment, four fields in three independent cultures, averaged.

B1: CLC: human polypeptide named cardiotrophin-like cytokine, IL-6 cytokine family member; tested as supernatant of transfected 293T cells (protein)
chain: MDLRAGDSWGMLACLCTVLWHLPAVPALNRTGDPGPGPSIQKTYDLTRYLEHQLRSLAGTYLNYLGPPFNEPDFNPPRLGAETLPRATVDLEVWRSLNDKLRLTQNYEAYSHLLCYLRGLNRQAATAELRRSLAHFCTSLQGLLGSIAGVMAALGYPLPQPLPGTEPTWTPGPAHSDFLQKMDDFWLLKELQTWLWRSAKDFNRLKKKMQPPAAAVTLHLGAHGF
modifications: homo sapiens; signal (-27)..(-1)
notes: human polypeptide named cardiotrophin-like cytokine, IL-6 cytokine family member; tested as supernatant of transfected 293T cells
Turning to B1, the “activation of the SRE element over the negative control level” value in experiment [1] was 2.6 fold. Moreover, the “No. Active Myocytes” value with Primary cardiomyocytes (setting [8]) came out at 50. Moreover, the “reduction of cardiomyocyte hypertrophic activity of mock-transfected 293T supernatant” value with Primary cardiomyocytes (supernatants from CLC-transfected 293T cells, 48 to 72 hours post-treatment) was determined as 2 fold. In addition, in the experiment with GAS element in M1 cells [2], the “induction of the GAS element (SRE experiment repeated)” value was 3.2 fold. In the experiment on M1 cells [3], the “inhibition of M1 cell proliferation with respect to the negative control” value came to 3.1 fold. In the experiment with M1 cells [4], the “band of tyrosine-phosphorylated protein in cell extracts” value is on record as “produced a band of phosphorylated protein”. Moreover, in the experiment on GAS element in M1 cells [5], the “induction of the GAS element” value came to 4.5 fold. The “No. Neurons” value in experiment [6] (setting [8]) is listed as 86. Also, the “change of sympathetic neuron counts” value in experiment [6] (samples treated with CLC-transfected supernatants) is “clear increase”. Moreover, in experiment [7], the “activation of the GAS element” value was determined as 4.6 fold.
